B1: Murine 2H9 (mouse anti-canine PD-1 monoclonal antibody) (antibody, V domains shown)
VH: EVQLQQSVAELVRPGASVKLSCTASGFNIKNTYMHWIKQRPEQGLEWIGRIAPANVDTKYAPKFQGKATITADTSSNTAYMQLSTLTSEDTAIYYCVLIYYDYDGDIDVWGTGTTVTVSS
VL: DIQMNQSPSSLSASLGDTITITCHASQNINVWLSWYQQRPGNIPKLLIYKASHLHTGVPSRFSGSGSGTGFTLTISSLQPEDIATYYCQQGQSWPLTFGAGTKLELK
B2: Murine 3B6 (mouse anti-canine PD-1 monoclonal antibody) (antibody, V domains shown)
VH: QIQLVQSGPELKKPGETVKISCKASGYTFTTYGMSWVKQAPGKGLKWMGWINIYSGIPTYADDFKGRFAFSLETSASTAYLQIDNLKNEDTATYFCARFDGPDYWGQGTTLTVSS
VL: DIVMTQSPSSLAVSVGRKVTMSCKSSQSLLNSVNQKNYLAWYQQKPGQSPKVLVYFASARVSGVPDRFIGSGSGTDFTLAISSVQAEDLTTYFCQQYFSTPLTFGAGTKLELK

Legend:
[1] = target: T1, canine PD-1 (canine Programmed Death Receptor 1) antigen (canine); experiment: SPR (Biacore T200), canine PD-1 immobilized by amine coupling, antibody as analyte, 1:1 fit
T1 sequence: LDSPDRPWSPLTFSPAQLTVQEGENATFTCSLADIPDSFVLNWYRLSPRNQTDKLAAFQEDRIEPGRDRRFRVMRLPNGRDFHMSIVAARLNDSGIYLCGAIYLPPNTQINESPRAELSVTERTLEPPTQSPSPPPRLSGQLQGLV

[2] = target: T1, canine PD-1 (canine Programmed Death Receptor 1) antigen (canine); experiment: SPR (Biacore T200), canine PD-1 immobilized by amine coupling, antibody as analyte, 1:1 fit; off-rate below detection limit

| Binder | kon [1] [M⁻¹ s⁻¹] | Kd [2] [nM] | koff [2] [s⁻¹] | Kd [1] [nM] | koff [1] [s⁻¹] |
| --- | --- | --- | --- | --- | --- |
| B1 | 23000 | < 0.2 | < 5e-06 |  |  |
| B2 | 18000 |  |  | 2 | 3.4e-05 |

Reference: US20240084004A1
